Results on 4 molecules are retold here after patent US12570994B2, “Plants having increased tolerance to herbicides” (BASF AGRO B.V., priority 2010, dated 2026).

The test system of data set [1] is Chlamydomonas reinhardtii. Briefly: Selection of mutagenized algae cells on solid medium with herbicide. The following applies: solid medium containing 1×10^−7 M.
Description: Algae cells of Chlamydomonas reinhardtii strains CC-503 and CC-1691 (Duke University, Durham, USA) are propagated in TAP medium (Gorman and Levine (1965) PNAS 54:1665-1669) by constant shaking at 100 rpm, 22° C. and 30 μmol Phot*m^−2*s^−2 light illumination. […] Compound screening is performed at 450 μmol Phot*m^−2*s^−2 illumination.
Sensitive strains of Chlamydomonas reinhardtii or Scenedesmus obliquus are mutated with 0.14 M ethylmethanesulfonate (EMS) for 1 h as described by Loppes (1969, 20 Mol Gen Genet 104:172-177) Tolerant strains are identified by screening of mutagenized cells on solid nutrient solution plates containing benzoxazinone-derivative herbicide of interest at low to lethal concentrations depending on compound activity in specific algae strain.
(A) Mutagenized cells plated on solid medium without a selecting agent. (B) Mutagenized cells plated on solid medium containing 1×10^−7 M benzoxazinone-derivative I.a.35.
The target in another data set is wild type PPO enzyme (Amaranthus tuberculatus, UniProt Q0NZW9). In words: PPO enzyme assay (recombinant), wild type. It counts as biochemical. The settings on record: 150 μM Protogen.
A short description of data set [2]: Enzyme activity of recombinant wild type and substituted PPO enzymes. The following applies: fluorescence unit change per minute.

For the molecule `C#CCN1C(=O)C(F)(F)Oc2cc(F)c(-n3c(=O)n(C)c(=S)n(C)c3=O)cc21` [benzoxazinone 1.a.35], the “growth of mutagenized Chlamydomonas reinhardtii cells (colony formation)” value in data set [1] is recorded as “susceptible cells do not grow”. Also, the IC50 (usually the concentration that inhibits the measured activity by half) at wild type PPO enzyme is 0.12 nM.

B1: F420M: amino acid substituted PPO enzyme F420M (protein, listed as Amaranthus tuberculatum)
chain: MVIQSITHLSPNLALPSPLSVSTKNYPVAVMGNISEREEPTSAKRVAVVGAGVSGLAAAYKLKSHGLSVTLFEADSRAGGKLKTVKKDGFIWDEGANTMTESEAEVSSLIDDLGLREKQQLPISQNKRYIARDGLPVLLPSNPAALLTSNILSAKSKLQIMLEPFLWRKHNATELSDEHVQESVGEFFERHFGKEFVDYVIDPFVAGTCGGDPQSLSMHHTFPEVWNIEKRFGSVFAGLIQSTLLSKKEKGGENASIKKPRVRGSFSFQGGMQTLVDTMCKQLGEDELKLQCEVLSLSYNQKGIPSLGNWSVSSMSNNTSEDQSYDAVVVTAPIRNVKEMKIMKFGNPFSLDFIPEVTYVPLSVMITAFKKDKVKRPLEGFGVLIPSKEQHNGLKTLGTLFSSMMFPDRAPSDMCLFTTMVGGSRNRKLANASTDELKQIVSSDLQQLLGTEDEPSFVNHLFWSNAFPLYGHNYDSVLRAIDKMEKDLPGFFYAGNHKGGLSVGKAMASGCKAAELVISYLDSHIYVKMDEKTA
On to B1, for which, in data set [2], the “Activity (FU/min)” value was determined as 353 FU/min.

B2: F420L: amino acid substituted PPO enzyme F420L (protein, listed as Amaranthus tuberculatum)
chain: MVIQSITHLSPNLALPSPLSVSTKNYPVAVMGNISEREEPTSAKRVAVVGAGVSGLAAAYKLKSHGLSVTLFEADSRAGGKLKTVKKDGFIWDEGANTMTESEAEVSSLIDDLGLREKQQLPISQNKRYIARDGLPVLLPSNPAALLTSNILSAKSKLQIMLEPFLWRKHNATELSDEHVQESVGEFFERHFGKEFVDYVIDPFVAGTCGGDPQSLSMHHTFPEVWNIEKRFGSVFAGLIQSTLLSKKEKGGENASIKKPRVRGSFSFQGGMQTLVDTMCKQLGEDELKLQCEVLSLSYNQKGIPSLGNWSVSSMSNNTSEDQSYDAVVVTAPIRNVKEMKIMKFGNPFSLDFIPEVTYVPLSVMITAFKKDKVKRPLEGFGVLIPSKEQHNGLKTLGTLFSSMMFPDRAPSDMCLFTTLVGGSRNRKLANASTDELKQIVSSDLQQLLGTEDEPSFVNHLFWSNAFPLYGHNYDSVLRAIDKMEKDLPGFFYAGNHKGGLSVGKAMASGCKAAELVISYLDSHIYVKMDEKTA
Turning to B2, the “Activity (FU/min)” value in data set [2] is recorded as 203 FU/min.

B3: R128A: amino acid substituted PPO enzyme R128A (protein, listed as Amaranthus tuberculatum)
chain: MVIQSITHLSPNLALPSPLSVSTKNYPVAVMGNISEREEPTSAKRVAVVGAGVSGLAAAYKLKSHGLSVTLFEADSRAGGKLKTVKKDGFIWDEGANTMTESEAEVSSLIDDLGLREKQQLPISQNKAYIARDGLPVLLPSNPAALLTSNILSAKSKLQIMLEPFLWRKHNATELSDEHVQESVGEFFERHFGKEFVDYVIDPFVAGTCGGDPQSLSMHHTFPEVWNIEKRFGSVFAGLIQSTLLSKKEKGGENASIKKPRVRGSFSFQGGMQTLVDTMCKQLGEDELKLQCEVLSLSYNQKGIPSLGNWSVSSMSNNTSEDQSYDAVVVTAPIRNVKEMKIMKFGNPFSLDFIPEVTYVPLSVMITAFKKDKVKRPLEGFGVLIPSKEQHNGLKTLGTLFSSMMFPDRAPSDMCLFTTFVGGSRNRKLANASTDELKQIVSSDLQQLLGTEDEPSFVNHLFWSNAFPLYGHNYDSVLRAIDKMEKDLPGFFYAGNHKGGLSVGKAMASGCKAAELVISYLDSHIYVKMDEKTA
Turning to B3, in data set [2], the “Activity (FU/min)” value is 731 FU/min.
